Data reported in article PMC5797297, “92R Monoclonal Antibody Inhibits Human CCR9^+ Leukemia Cells Growth in NSG Mice Xenografts” (Frontiers in Immunology, 2018).
Residue numbers refer to the chain shown, from its start. Values belong to the binder of their own block, whether it stands above or below them.

What was measured:
peptide hCCR9 (10–30) = biological target: T1, peptide hCCR9 (10–30) (Homo sapiens (Human)., UniProt P51686-1); assay: SPR; competition: biotin-K-hCCR9A(2–19) captured on a streptavidin (SA) chip; mAb at 10 nM preincubated 30 min with competitor peptide (0.01–1 µM; 1 µM in Figure 6C,D); HBS-EP pH 7.4; settings: both partners purified
T1 construct: human CCR9 isoform A, residues 10-30; source: synthetic peptide
T1 chain: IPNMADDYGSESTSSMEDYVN

[1] = biological target: T2, peptide hCCR9 (13–30), corresponding to the N-terminus of the B isoform (Homo sapiens, UniProt P51686-1); assay: as above; settings: both partners purified
T2 construct: human CCR9, residues 13-30 on the numbering of isoform A (the B isoform starts in M13 of hCCR9-A); source: synthetic peptide
T2 chain: MADDYGSESTSSMEDYVN

[2] = biological target: T3, synthetic peptide hCCR9A aa 2–22 with an additional N-terminal cysteine (Homo sapiens (Human).); assay: SPR; Biacore 3000; Cys-hCCR9A(2–22) peptide amine-coupled at low density to a CM5 chip; mAb as analyte at 0.41 to 33 nM; HBS-EP pH 7.4, 25°C, 30 µl/min; bivalent analyte model; apparent; settings: both partners purified
T3 construct: additional cysteine residue at the N terminus; human CCR9 isoform A, residues 2-22; Amine-coupled to a CM5 chip for the kinetic SPR; also called hCCR9 (2–22); source: synthetic peptide
T3 chain: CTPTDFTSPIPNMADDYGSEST

[3] = biological target: T4, hCCR9(2–22) synthetic peptide (coat of the ELISA; competitor in SPR) (Homo sapiens, CCR9 isoform A, UniProt P51686); assay: ELISA; competitive ELISA: hCCR9(2–22) peptide coated at 1 µg/ml in PBS overnight at 4°C; biotin-labeled mAb mixed with unlabeled mAb (2 µg/ml in PBS–0.5% BSA), 1 h at room temperature; peroxidase-labeled streptavidin; settings: both partners purified
T4 construct: human CCR9 isoform A, residues 2-22; May be the same peptide as m5; also called hCCR9 (aa 2–22) synthetic peptide; peptide hCCR9 (2–22); source: synthetic peptide
T4 chain: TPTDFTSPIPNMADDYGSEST

[4] = biological target: T5, human chemokine receptor CCR9, A isoform, on stably transfected HEK-293 cells (Homo sapiens (Human)., UniProt P51686-1); assay: flow cytometry on cells; 2 x 10^5 cells blocked with 40 µg/ml rat IgG, incubated with the primary mAb 30 min at 4°C in PBS pH 7.4 with 0.5% BSA, 1% FBS, 0.1% sodium azide; revealed with FITC- or PE-goat F(ab')2 anti-mouse IgG; settings: one partner purified
T5 construct: also called hCCR9-A; hCCR9-HEK-293; source: HEK-293, stably transfected (pCIneo-hCCR9), on cells

[5] = biological target: T6, endogenous CCR9 on MOLT-4 human T-ALL cells (Homo sapiens (Human)., UniProt P51686); assay: as above; settings: one partner purified
T6 construct: human CCR9 as expressed by MOLT-4 cells; also called CCR9^+ MOLT-4 cells; source: endogenous, on MOLT-4 cells
T6 sequence (P51686 whole entry): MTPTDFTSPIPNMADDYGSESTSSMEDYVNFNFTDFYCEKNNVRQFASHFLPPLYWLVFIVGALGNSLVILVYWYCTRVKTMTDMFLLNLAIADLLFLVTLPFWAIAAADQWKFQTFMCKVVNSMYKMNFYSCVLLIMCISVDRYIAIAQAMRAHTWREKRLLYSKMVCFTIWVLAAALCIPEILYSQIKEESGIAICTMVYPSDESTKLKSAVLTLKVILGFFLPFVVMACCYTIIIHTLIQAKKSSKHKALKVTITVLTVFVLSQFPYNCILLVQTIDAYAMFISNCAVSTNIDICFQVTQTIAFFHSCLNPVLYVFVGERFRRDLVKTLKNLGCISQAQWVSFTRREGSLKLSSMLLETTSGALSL

T5 sequence (P51686 whole entry, canonical isoform): as the sequence (P51686 whole entry) above

- binding result (peptide hCCR9 (10–30)): binds
- binding result [1]: no binding (tested: 1 µM)
- Kd [2]: 8.9 nM
- binding result [3]: binds
- binding result [4]: binds
- binding result [5]: binds
B1: 92R, mouse anti-human CCR9 monoclonal antibody (IgG2a) (antibody, V domains shown)
VH: EVKLEESGGGLVQPGGSMKLSCVASGFTFNKFWMNWVRQSPEKGLEWVAEIRLKSNNYATHYAESVKGRFTISRDDSKSSVYLQMNNLRAEDTGIYYCASDGWFAYWGQGTLVTVSA
VL: DVVMTQTPLSLPVSLGDQASISCRSSQSLVHSNGNTYLNWCLQRPGQSPKSLIYKVSNRFSGVPDRFSGSGSGTDFTLKISRVEAEDLGVYFCSQSTHFPRTFGGGTKLEIK
notes: heavy chain variable region of 92R; mouse IgG2a heavy chain constant region (isotype as stated); light chain variable region of 92R; light chain constant region; IgG2a; also called 92R mAb; anti-hCCR9 92R; source: mouse hybridoma, mAb purified from culture supernatants

- binding result [1]: no binding (tested: 1 µM)
- Kd [2]: 3.6 nM
- binding result [3]: binds
- binding result [5]: binds
B2: 91R, mouse anti-human CCR9 monoclonal antibody (IgG2b) (antibody, V domains shown)
VH: B1 VH with E6D, G16R, N30S, K31N, A90T, A99T
VL: DVVMTQTPLSLPVSLGDQTSISCRSSQSLLHSNGNTYVQWYLRKPGQSPKLLIYKVSNRFPGVPDRFSGSGSGTDFTFKISRVEAEDLGVYFCAQSTHVPRTFGGGTKLEIK
notes: heavy chain variable region of 91R; mouse IgG2b heavy chain constant region (isotype as stated); light chain variable region of 91R; light chain constant region; IgG2b; also called 91R mAb; anti-hCCR9 91R; source: mouse hybridoma, mAb purified from culture supernatants
